# Source: patent publication US20060153851A1, “CLASP proteins” (ARBOR VITA CORPORATION, published 2006)
# T1: GST-NeDLG fusion protein (human, UniProt Q92796)
# T1 sequence: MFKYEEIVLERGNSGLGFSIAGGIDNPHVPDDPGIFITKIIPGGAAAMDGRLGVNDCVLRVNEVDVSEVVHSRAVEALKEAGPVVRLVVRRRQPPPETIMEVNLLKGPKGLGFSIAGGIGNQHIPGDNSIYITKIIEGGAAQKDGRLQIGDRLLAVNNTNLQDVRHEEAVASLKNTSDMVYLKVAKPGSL
# B1: biotinylated synthetic peptide corresponding to the C-terminal 20 amino acids of CLASP-2 (peptide)
# peptide: VLHHHQNPEFYDEIKIELPTQLHEKHHLLLTFFHVSCDNSSKGSTKKRDVVETQVGYSWLPLLKDGRVVTSEQHIPVSANLPSGYLGYQELGMGRHYGPEIKWVDGGKPLLKISTHLVSTVYTQDQHLHNFFQYCQKTESGAQALGNELVKYLKSLHAMEGHVMIAFLPTILNQLFRVLTRATQEEVAVNVTRVIIHVVAQCHEEGLESHLRSYVKYAYKAEPYVASEYKTVHEELTKSMTTILKPSADFLTSNKLLRYSWFFFDVLIKSMAQHLIENSKVKLLRNQRFPASYHHAAETVVNMLMPHITQKFGDNPEASKNANHSLAVFIKRCFTFMDRGFVFKQINNYISCFAPGDPKTLFEYKFEFLRVVCNHEHYIPLNLPMPFGKGRIQRYQDLQLDYSLTDEFCRNHFLVGLLLREVGTALQEFREVRLIAISVLKNLLIKHSFDDRYASRSHQARIATLYLPLFGLLIENVQRINVRDVSPFPVNAGMTVKDESLALPAVNPLVTPQKGSTLDNSLHKDLLGAISGIASPYTTSTPNINSVRNADSRGSLISTDSGNSLPERNSEKSNSLDKHQQSSTLGNSVVRCDKLDQSEIKSLLMCFLYILKSMSDDALFTYWNKASTSELMDFFTISEVCLHQFQYMGKRYIARNQEGLGPIVHDRKSQTLPVSRNRTGMMHARLQQLGSLDNSLTFNHSYGHSDADVLHQSLLEANIATEVCLTALDTLSLFTLAFKNQLLADHGHNPLMKKVFDVYLCFLQKHQSETALKNVFTALRSLIYKFPSTFYEGRADMCAALCYEILKCCNSKLSSIRTEASQLLYFLMRNNFDYTGKKSFVRTHLQVIISVSQLIADVVGIGETRFQQSLSIINNCANSDRLIKHTSFSSDVKDLTKRIRTVLMATAQMKEHENDPEMLVDLQYSLAKSYASTPELRKTWLDSMARIHVKNGDLSEAAMCYVHVTALVAEYLTRKGVFRQGCTAFRVITPNIDEEASMMEDVGMQDVHFNEDVLMELLEQCADGLWKAERYELIADIYKLIIPIYEKRRDFFEDEDGKEYIYKEPKLTPLSEISQRLLKLYSDKFGSENVKMIQDSGKVNPKDLDSKYAYIQVTHVIPFFDEKELQERKTEFERSHNIRRFMFEMPFTQTGKRQGGVEEQCKRRTILTAIHCFPYVKKRIPVMYQHHTDLNPIEVAIDEMSKKVAELRQLCSSAEVDMIKLQLKLQGSVSVQVNAGPLAYARAFLDDTNTKRYPDNKVKLLKEVFRQFVEACGQALAVNERLIKEDQLEYQEEMKANYREMAKELSEIMHEQICPLEEKTSVLPNSLHIFNAISGTPTSTMVHGMTSSSSVV
# modifications: biotin at the amino-terminus
# How the values were obtained:
# GST-NeDLG fusion protein [1] = biological target: T1, GST-NeDLG fusion protein; assay: biotinylated peptide titration on plate-bound GST fusion (FIG. 9B)
# Method: 20 μM biotinylated synthetic peptide corresponding to the C-terminal 20 amino acids of CLASP-2 was reacted with the indicated plate bound GST fusion proteins (none=no GST fusion protein coated onto plate). Error bars indicate standard deviation of duplicate measurements. B. Affinity of CLASP 2-PDZ interactions. Varying concentrations of biotinylated CLASP-2 peptide were reacted with plate bound GST alone, GST-DLG1, GST-NeDLG, and GST-PSD95 fusion proteins. The binding to GST alone (<0.1 OD units) was subtracted from the binding to the fusion proteins and the remaining signal was divided by the signal observed upon addition of 30 μM CLASP-2 peptide to each PDZ domain-containing protein (0.4-1.0 OD units) and plotted. […] Data are means of duplicate data points, with standard errors between duplicate data points <10%. C. Inhibition of CLASP-2-PDZ binding. 5 μM biotinylated synthetic peptide corresponding to the C-terminal 20 amino acids of CLASP-2 was reacted with the indicated, plate-bound PDZ domain-containing GST fusion proteins in the presence or absence of 100 μM competitor peptide. CLASP-2 Inhibitor refers to a synthetic peptide composed of the eight C-terminal amino acids of CLASP-2. […]
# The binding of a biotinylated carboxyl-terminal peptide to a GST-PDZ fusion protein is measured as follows: [0470] […]
# GST-NeDLG fusion protein [2] = biological target: T1, GST-NeDLG fusion protein; assay: varying concentrations of biotinylated peptide on plate-bound GST fusion, streptavidin-HRP, fit to a saturation binding curve (FIG. 9B)
# Method: (§1) 20 μM biotinylated synthetic peptide corresponding to the C-terminal 20 amino acids of CLASP-2 was reacted with the indicated plate bound GST fusion proteins (none=no GST fusion protein coated onto plate). Error bars indicate standard deviation of duplicate measurements. B. Affinity of CLASP 2-PDZ interactions. Varying concentrations of biotinylated CLASP-2 peptide were reacted with plate bound GST alone, GST-DLG1, GST-NeDLG, and GST-PSD95 fusion proteins. The binding to GST alone (<0.1 OD units) was subtracted from the binding to the fusion proteins and the remaining signal was divided by the signal observed upon addition of 30 μM CLASP-2 peptide to each PDZ domain-containing protein (0.4-1.0 OD units) and plotted. […] Data are means of duplicate data points, with standard errors between duplicate data points <10%. C. Inhibition of CLASP-2-PDZ binding. 5 μM biotinylated synthetic peptide corresponding to the C-terminal 20 amino acids of CLASP-2 was reacted with the indicated, plate-bound PDZ domain-containing GST fusion proteins in the presence or absence of 100 μM competitor peptide. CLASP-2 Inhibitor refers to a synthetic peptide composed of the eight C-terminal amino acids of CLASP-2. KV1.3 Inhibitor refers to a synthetic peptide composed of the 19 C-terminal amino acids of KV1.3, a lymphocyte potassium channel. The amino acid sequence of the KV1.3 inhibitor is […]. D. Inhibition of KV1.3-PDZ binding. 5 μM biotinylated synthetic peptide corresponding to the C-terminal 19 amino acids of KV1.3 was reacted with the indicated, plate-bound PDZ-domain containing GST fusion proteins in the presence or absence of 100 μM CLASP-2 Inhibitor (see FIG. 9C legend).
# (§2) The binding of a biotinylated carboxyl-terminal peptide to a GST-PDZ fusion protein is measured as follows: [0470] (1) GST fusion protein containing one or more PDZ domain(s) is coated onto a protein-binding surface. […]
# GST-DLG1 fusion protein = GST-DLG1 fusion protein (Homo sapiens (Human), UniProt Q12959); assay: as above
# Method: as §1, §2
# GST-PSD95 fusion protein = GST-PSD95 fusion protein (Homo sapiens (Human), UniProt P78352); assay: as above
# Method: as §1, §2
binder,measurement,setting,value
B1,Ka,GST-NeDLG fusion protein [1],≥ 10000 M⁻¹
same,Kd,GST-NeDLG fusion protein [2],7.5 µM
same,Kd,GST-DLG1 fusion protein,21 µM
same,Kd,GST-PSD95 fusion protein,45 µM
